Data taken from the nanobody polyreactivity screen of Harvey et al. (2022).

Test: yeast display, Sf9 membrane polyspecificity reagent, FACS + sequencing; frameworks hold sequencing errors
Outline: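 Polyreactivity labels are assigned by the sorting gate from which each nanobody was recovered. The gates were low and high (top ~1%), set on anti-HA fluorescence for expression and streptavidin fluorescence for reagent binding. Before sorting, galactose-induced (36–48 hours) yeast display cells were stained for 1 hour at 4 °C with 10% biotinylated, detergent-solubilized Sf9 membrane reagent.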

| Sequence | polyreactivity (PSR sort gate) |
| --- | --- |
| QVQLVEAGGGLVQAGGSLRLSCAASGSTFPYNARGWYSQAPGKDRELVAAMTSAGGTNYADSVKGRFTISRDNATNTVYLQMNSLKPEDTAVYYCAADGSGYYDWYYYWGQGTQVTVSS | low polyreactivity |
| QVQLVEAGGGLVQAGGSLRLSCAASGSTFVKNAMGWYRQAPGKERELVAAISYRGGRTYYADSVKRRFTISRDNAKNTVYLQMNSLKPEDTAVYYCAADASHLTGYEYWGQGTQGTVSS | high polyreactivity |
| QVQLVEAGGGLVQAGGSLRLSCAAYGRTFYTYAMGWYRQAPGKEREFVAAITWSGGSTYYADSVKGRFTISRDNAKNTVYLQMNSLKPEDPAVYYCAAGSRFRYSPGQSYEYGYWGQGTQVTVSS | low polyreactivity |
| QVQLVEAGVCLVQSGGRLRLSCAATGFTFTSKVIGWSRQAPGKERELVADISASDGRTYYADSVKGRFRISRENAKNTVYLQMNRLKTEDTAVYYCAASLWVYVGQARYHWYDYWGQGTQVTVSS | low polyreactivity |
| QVQLVEEGGGLVQAGGTRRLSCAASGSTFTVYVMGWYRQAPGQERELVAAINLSGGRTYYADSVKGRFTISRDNAKNTVYLQMNSLKPEDTAVYYCAADGSTWGDYRTYGYWGQGTLVTVSS | low polyreactivity |
| QVQLVESAAGLVQAGASHRLSCAASARTFTVNAMGWYRQAPGKERELVAAISGRSGRTSYADSVKGRFTISRDNAKNTVYLQMNSLKQEVTAVYYCAADYYFYFTYPARFGYWGLGTQVTVSS | high polyreactivity |
| QVQLVESAAGLVQAGASLRLSCAPSGSIFSGNALGWSRQAPGKARELVAAISQNGGRTYYADSVKGRFTISRDYAKNTVYLQMNILKPDDTAVYYCAALAVRFYSSYDYWGQGTQVTVSS | high polyreactivity |
| QVQLVESAAGLVQAGGSLRLSCAPSGSTFPRYAMGWYRQAPGKERELVAAITKNGGYTYYADSVKGRFTISRDNAKNTVYLQMNSLKPEDTAVYYCAAERWYSCYRVGVSYDYWGQGTQVTVSS | high polyreactivity |
| QVQLVESAAGLVQAGGSLSLSCAASGFIFWRYAMGWYRQAPGKERELVAAISVSGTRTYYADSVKGRFTISRDNAKNTVYLQMNSLKPEDTAVYYCNAASRSFSSDRAFDYWGQGTQVTVSS | high polyreactivity |
| QVQLVESAGDLVQAGRTLRFSCAPSGSIFKPNAMGWYRQAPGKERELVDDISRSGTSTYYADSVKGRFTISRDIAKNTVYLQMNSLKPEDTAVFNCATRYSGDYGYWGQGTQVTVSS | high polyreactivity |
| QVQLVESAGGIVQAGGSLRLSFAASGSTFTRYAMGWYRPAPGKERELVAAIDGGGGSTSYADSVKGRFTISRDHAKNTVYLQMNSLKPEDTAVYYCAAPLDTSSRIFDYWGHGTQVTVSS | low polyreactivity |
| QVQLVESAGGLVHAGGSLRLSCAASGNIFRWYAMGWYRQAPGKDRELVAAISSGGRTNYADSVKGRFTISRDNALNSVFLQMNSLKPEDTAVFYWYIVAGVTGRFYFWGQGTQVTVSS | low polyreactivity |
| QVQLVESAGGLVQAGASLRLSCAASGFIFRYNTKGWYRQAPGKEMELVATINRSGGSTYYADSVKGRFTISRDNAKNTVYLQMNSLKPVDTAVYYCAAVSLQPYYNAGATWDGDYWGQGTQVTVSS | high polyreactivity |
| QVQLVESAGGLVQAGASLRLSCAASGLIYRKYSMGWYRQAPGKERELVAAISSGGDTNYADSVKGLFTISRDNAKNTVYLQMNSLKPEDTAVYYCNADRKYWYGIALEYWGQGTQVTVSS | high polyreactivity |
| QVQLVESAGGLVQAGGILRLSCAASGFTFYFYAMGWYRQSPGKERELVAAISRSGSRTYYADSVKGRFTISRDNAKNTVYLQMNSLKPEDTAVYYCARVRPRGLYFVLHYDYWGQGTQVTVSS | high polyreactivity |
| QVQLVESAGGLVQAGGRLLLSCAASGRIFAKYAMGWYRQAPGKERELVAAIRSTGGGTYYADSVKGRFTISRDNAKNTVYLQMNSLKPEDTAVYYCDARQTYYKYGYWGQGTQVTVSS | high polyreactivity |

| Sequence | polyreactivity (PSR sort gate) |
| --- | --- |
| QVQLVESAGGLVQAGGSLRLICAASVFTFYYYTMGWYRPAPGKERELVAGISGTGGSTYYADSVKGRFTISRDNAKNTVYLQMNSLKPEDTAVYYCAAGPWYWGQGTQVTVSS | low polyreactivity |
| QVQLVESAGGLVQAGGSLRLRCAASGRIFTHNAMGWYRQAPGKERELVAAITSGGRTTYADSVKGRFTISRDNAKNTVYLQMNSLKPEDSAVYYCNADTGLGSLDFDKRDYWGQGTQVTVSS | low polyreactivity |
| QVQLVESAGGLVQAGGSLRLSCAASGAIFGGYAMGWYRQAPGKERELVAAISSSGGSTYFADSVKGRFTISRDNEKNTVYLQMNSLKPEDTAVYYCAAKYQRRYYYWGQGTQVTVSS | high polyreactivity |
| QVQLVESAGGLVQAGGSLRLSCAASGFIFFGNAMGWYRQAPGKERALVAVITWSGGSTYADSVKGRFTISRDNAKNPVYLQMNSLKPEDTAVYYSAADQQTWWQYSLINEYDYWGQGTQVTVTS | low polyreactivity |
| QVQLVESAGGLVQAGGSLRLSCAASGFIFPRYAMGWYRPAPGKERELVAAISSSGGSTYYADSVKGRFTISRDNAKNTVYLQMNSLKPEDTAVYYCAARYQSDYWRYYYWGQGTQVTVSS | high polyreactivity |
| QVQLVESAGGLVQAGGSLRLSCAASGGIFSRYSMGWYRQAPGKERELVAAITRSGGSTYYADSVKGRFTISRDNAKNTVYLQLNSLKPEDTAVYYCSARRRGGSKYGYWGQGTQVTVSS | high polyreactivity |
| QVQLVESAGGLVQAGGSLRLSCAASGICAVYARGWYRQAPGKERELVAAITLSGGSTSYADSVKGRFTISRDNAKNTVYLQMNSLNPAATEVYYCAVLIRYPYYYWGQGTQVTVSS | low polyreactivity |
| QVQLVESAGGLVQAGGSLRLSCAASGIIFSYYVMGWYRQAPGKERELVAAITTSGSRTYYADSVKGRFTISRDNAKITVYLQMNSLKPEVTSVYYCAAADAGLSVSSYRTYYYWGQGTQVTVSS | high polyreactivity |
| QVQLVESAGGLVQAGGSLRLSCAASGLIFARNSMGWYRQAPGKERELVAAISKRGGSTFYADSVKGRFTISRDNAKNTVYLQMNSLKPVDTAVYYWNARSSETWHGDYWGQGTQVTVSS | high polyreactivity |
| QVQLVESAGGLVQAGGSLRLSCAASGLTFYLYVMGWSRQATGKERELVAAISRRGGTTYYADSVKGRFTISRDNAKNTVYLQMNSLKPEDTAVYYCNKADAVGRDYDYWGQGTQVTVSS | high polyreactivity |
| QVQLVESAGGLVQAGGSLRLSCAASGLTFYRYAMGWYRQAPGKERELVAAISSADRTYYADSVKGRFTISRDNAKNTVYLQMNSLKPEDTAVYYCNARGIGRSTKWSSRDYWGQGTQVTVSS | high polyreactivity |
| QVQLVESAGGLVQAGGSLRLSCAASGRIFRANAMGWYRQAPGKERELVATIRNSGGITYYADSVKGRFTISRDHAKNTVYLQMNSLIPEDTAVYYCAKLGRYGYDYWGQGTQVTVSS | high polyreactivity |
| QVQLVESAGGLVQAGGSLRLSCAASGRIFYRYAMAWYRQAPGKERELVAAITQSGGSTFYADSVKGRFTISRDNAKNTVYLQMNSLKPEDTAVYYCNAYIPSLRGDYWGQGTQVTVSS | high polyreactivity |
| QVQLVESAGGLVQAGGSLRLSCAASGSIFLSNAMGWYRQAPGTERALVADIDWTGGDTYYADSVKGRFTISRDNAKNTVYLQMNSLKPEDTAFYYCAADYGYRNLLTEYGYWGQGTQVTVSS | low polyreactivity |
| QVQLVESAGGLVQAGGSLRLSCAASGSIFPTNTMGWYRQAPGKERELVATIRKSSGRTYYADSVKGRFTISRDNAKNTVYLQMNSLKPEDTAVYYCNARRYSGALRYDYWGQGTQVTVSS | high polyreactivity |
| QVQLVESAGGLVQAGGSLRLSCAASGSIFSPYAMGWYRQAPGKERELVAAITWNGGRTYYADSVKGRFTISRDNAKNTVYLHMNSLKPEDTAVYYCTAASQSRYYYWGQGTQVTVSS | high polyreactivity |
